According to the supplement of paper PMC9876800:

Test system: peptide library, one residue held at a place counted from the S/T acceptor
Test: relative phosphorylation of the sub-library (ratio to the mean residue at this position); human; higher = residue favoured
Summary of the method: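 Relative sub-library phosphorylation is a ratio to the mean residue at the same position. Purified recombinant kinases were incubated under kinase-specific conditions with biotinylated degenerate peptide sub-libraries, each fixing one residue at one position around a central Ser/Thr, using 50 μM peptide and 50 μM ATP spiked with γ-32P-ATP for 90 min. Spots captured on streptavidin membranes were phosphorimaged and quantified by densitometry.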

Sequence of CIT, construct: aa1-449 (O14578 1-449, looked up): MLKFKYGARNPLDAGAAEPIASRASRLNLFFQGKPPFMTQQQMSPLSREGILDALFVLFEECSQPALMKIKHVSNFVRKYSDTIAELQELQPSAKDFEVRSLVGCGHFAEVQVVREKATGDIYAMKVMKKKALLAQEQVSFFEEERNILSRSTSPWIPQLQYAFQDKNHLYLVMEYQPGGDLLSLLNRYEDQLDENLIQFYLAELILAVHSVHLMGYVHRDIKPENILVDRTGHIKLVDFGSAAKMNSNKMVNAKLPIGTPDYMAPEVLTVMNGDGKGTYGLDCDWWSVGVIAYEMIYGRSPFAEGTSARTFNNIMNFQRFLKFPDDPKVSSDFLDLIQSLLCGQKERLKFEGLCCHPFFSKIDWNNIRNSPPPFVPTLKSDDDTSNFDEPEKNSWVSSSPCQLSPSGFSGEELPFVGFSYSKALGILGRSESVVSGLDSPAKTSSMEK

## CIT, construct: aa1-449 (from UniProt O14578)
A fixed, at +1
  relative phosphorylation: 0.788
A fixed, at +2
  relative phosphorylation: 1.01
A fixed, at +3
  relative phosphorylation: 0.8
A fixed, at +4
  relative phosphorylation: 0.784
A fixed, at -1
  relative phosphorylation: 0.721
A fixed, at -2
  relative phosphorylation: 0.715
A fixed, at -3
  relative phosphorylation: 0.553
A fixed, at -4
  relative phosphorylation: 1
A fixed, at -5
  relative phosphorylation: 0.448
D fixed, at +1
  relative phosphorylation: 0.453
D fixed, at +2
  relative phosphorylation: 0.586
D fixed, at +3
  relative phosphorylation: 0.789
D fixed, at +4
  relative phosphorylation: 0.886
D fixed, at -1
  relative phosphorylation: 0.385
D fixed, at -2
  relative phosphorylation: 0.254
D fixed, at -3
  relative phosphorylation: 0.176
D fixed, at -4
  relative phosphorylation: 0.422
D fixed, at -5
  relative phosphorylation: 0.299
E fixed, at +1
  relative phosphorylation: 0.373
E fixed, at +2
  relative phosphorylation: 0.517
E fixed, at +3
  relative phosphorylation: 0.638
E fixed, at +4
  relative phosphorylation: 0.851
E fixed, at -1
  relative phosphorylation: 0.372
E fixed, at -2
  relative phosphorylation: 0.28
E fixed, at -3
  relative phosphorylation: 0.171
E fixed, at -4
  relative phosphorylation: 0.504
E fixed, at -5
  relative phosphorylation: 0.276
F fixed, at +1
  relative phosphorylation: 1.34
F fixed, at +2
  relative phosphorylation: 1
F fixed, at +3
  relative phosphorylation: 1.37
F fixed, at +4
  relative phosphorylation: 0.882
F fixed, at -1
  relative phosphorylation: 0.778
F fixed, at -2
  relative phosphorylation: 0.406
F fixed, at -3
  relative phosphorylation: 0.259
F fixed, at -4
  relative phosphorylation: 0.622
F fixed, at -5
  relative phosphorylation: 0.767
G fixed, at +1
  relative phosphorylation: 0.937
G fixed, at +2
  relative phosphorylation: 2.04
G fixed, at +3
  relative phosphorylation: 1.1
G fixed, at +4
  relative phosphorylation: 1.13
G fixed, at -1
  relative phosphorylation: 0.905
G fixed, at -2
  relative phosphorylation: 0.435
G fixed, at -3
  relative phosphorylation: 0.382
G fixed, at -4
  relative phosphorylation: 0.931
G fixed, at -5
  relative phosphorylation: 0.498
H fixed, at +1
  relative phosphorylation: 1.24
H fixed, at +2
  relative phosphorylation: 1.3
H fixed, at +3
  relative phosphorylation: 1.67
H fixed, at +4
  relative phosphorylation: 1.15
H fixed, at -1
  relative phosphorylation: 1.75
H fixed, at -2
  relative phosphorylation: 0.874
H fixed, at -3
  relative phosphorylation: 0.797
H fixed, at -4
  relative phosphorylation: 0.997
H fixed, at -5
  relative phosphorylation: 0.804
I fixed, at +1
  relative phosphorylation: 0.914
I fixed, at +2
  relative phosphorylation: 0.884
I fixed, at +3
  relative phosphorylation: 0.866
I fixed, at +4
  relative phosphorylation: 0.948
I fixed, at -1
  relative phosphorylation: 0.394
I fixed, at -2
  relative phosphorylation: 0.693
I fixed, at -3
  relative phosphorylation: 0.251
I fixed, at -4
  relative phosphorylation: 0.612
I fixed, at -5
  relative phosphorylation: 1.09
K fixed, at +1
  relative phosphorylation: 0.779
K fixed, at +2
  relative phosphorylation: 0.694
K fixed, at +3
  relative phosphorylation: 0.781
K fixed, at +4
  relative phosphorylation: 0.858
K fixed, at -1
  relative phosphorylation: 2.2
K fixed, at -2
  relative phosphorylation: 3.1
K fixed, at -3
  relative phosphorylation: 1.76
K fixed, at -4
  relative phosphorylation: 2.77
K fixed, at -5
  relative phosphorylation: 1.75
L fixed, at +1
  relative phosphorylation: 1.02
L fixed, at +2
  relative phosphorylation: 0.768
L fixed, at +3
  relative phosphorylation: 0.995
L fixed, at +4
  relative phosphorylation: 1.01
L fixed, at -1
  relative phosphorylation: 0.874
L fixed, at -2
  relative phosphorylation: 0.826
L fixed, at -3
  relative phosphorylation: 0.25
L fixed, at -4
  relative phosphorylation: 0.74
L fixed, at -5
  relative phosphorylation: 0.89
M fixed, at +1
  relative phosphorylation: 1.14
M fixed, at +2
  relative phosphorylation: 0.77
M fixed, at +3
  relative phosphorylation: 0.889
M fixed, at +4
  relative phosphorylation: 1.03
M fixed, at -1
  relative phosphorylation: 0.888
M fixed, at -2
  relative phosphorylation: 0.88
M fixed, at -3
  relative phosphorylation: 0.303
M fixed, at -4
  relative phosphorylation: 0.801
M fixed, at -5
  relative phosphorylation: 0.603
N fixed, at +1
  relative phosphorylation: 1.41
N fixed, at +2
  relative phosphorylation: 1.06
N fixed, at +3
  relative phosphorylation: 0.882
N fixed, at +4
  relative phosphorylation: 1.14
N fixed, at -1
  relative phosphorylation: 1.17
N fixed, at -2
  relative phosphorylation: 0.779
N fixed, at -3
  relative phosphorylation: 0.4
N fixed, at -4
  relative phosphorylation: 0.735
N fixed, at -5
  relative phosphorylation: 0.465
P fixed, at +1
  relative phosphorylation: 0.461
P fixed, at +2
  relative phosphorylation: 1.36
P fixed, at +3
  relative phosphorylation: 1.23
P fixed, at +4
  relative phosphorylation: 1.43
P fixed, at -1
  relative phosphorylation: 1.39
P fixed, at -2
  relative phosphorylation: 0.42
P fixed, at -3
  relative phosphorylation: 0.739
P fixed, at -4
  relative phosphorylation: 0.978
P fixed, at -5
  relative phosphorylation: 0.631
Q fixed, at +1
  relative phosphorylation: 1.15
Q fixed, at +2
  relative phosphorylation: 0.762
Q fixed, at +3
  relative phosphorylation: 0.931
Q fixed, at +4
  relative phosphorylation: 1.04
Q fixed, at -1
  relative phosphorylation: 0.969
Q fixed, at -2
  relative phosphorylation: 1.03
Q fixed, at -3
  relative phosphorylation: 0.7
Q fixed, at -4
  relative phosphorylation: 0.924
Q fixed, at -5
  relative phosphorylation: 0.72
R fixed, at +1
  relative phosphorylation: 1.05
R fixed, at +2
  relative phosphorylation: 0.907
R fixed, at +3
  relative phosphorylation: 0.763
R fixed, at +4
  relative phosphorylation: 0.874
R fixed, at -1
  relative phosphorylation: 1.85
R fixed, at -2
  relative phosphorylation: 4.68
R fixed, at -3
  relative phosphorylation: 9.39
R fixed, at -4
  relative phosphorylation: 3.11
R fixed, at -5
  relative phosphorylation: 5.94
V fixed, at +1
  relative phosphorylation: 0.734
V fixed, at +2
  relative phosphorylation: 0.86
V fixed, at +3
  relative phosphorylation: 0.816
V fixed, at +4
  relative phosphorylation: 0.805
V fixed, at -1
  relative phosphorylation: 0.506
V fixed, at -2
  relative phosphorylation: 0.838
V fixed, at -3
  relative phosphorylation: 0.299
V fixed, at -4
  relative phosphorylation: 0.683
V fixed, at -5
  relative phosphorylation: 0.523
W fixed, at +1
  relative phosphorylation: 1.55
W fixed, at +2
  relative phosphorylation: 1.16
W fixed, at +3
  relative phosphorylation: 1.31
W fixed, at +4
  relative phosphorylation: 1.21
W fixed, at -1
  relative phosphorylation: 0.682
W fixed, at -2
  relative phosphorylation: 0.407
W fixed, at -3
  relative phosphorylation: 0.302
W fixed, at -4
  relative phosphorylation: 0.571
W fixed, at -5
  relative phosphorylation: 0.591
Y fixed, at +1
  relative phosphorylation: 1.66
Y fixed, at +2
  relative phosphorylation: 1.33
Y fixed, at +3
  relative phosphorylation: 1.17
Y fixed, at +4
  relative phosphorylation: 0.979
Y fixed, at -1
  relative phosphorylation: 1.17
Y fixed, at -2
  relative phosphorylation: 0.389
Y fixed, at -3
  relative phosphorylation: 0.272
Y fixed, at -4
  relative phosphorylation: 0.598
Y fixed, at -5
  relative phosphorylation: 0.707
pThr fixed, at +1
  relative phosphorylation: 0.466
pThr fixed, at +2
  relative phosphorylation: 0.609
pThr fixed, at +3
  relative phosphorylation: 0.878
pThr fixed, at +4
  relative phosphorylation: 1.12
pThr fixed, at -1
  relative phosphorylation: 0.349
pThr fixed, at -2
  relative phosphorylation: 0.323
pThr fixed, at -3
  relative phosphorylation: 0.259
pThr fixed, at -4
  relative phosphorylation: 0.491
pThr fixed, at -5
  relative phosphorylation: 0.405
pTyr fixed, at +1
  relative phosphorylation: 0.784
pTyr fixed, at +2
  relative phosphorylation: 0.65
pTyr fixed, at +3
  relative phosphorylation: 0.802
pTyr fixed, at +4
  relative phosphorylation: 0.925
pTyr fixed, at -1
  relative phosphorylation: 0.34
pTyr fixed, at -2
  relative phosphorylation: 0.333
pTyr fixed, at -3
  relative phosphorylation: 0.226
pTyr fixed, at -4
  relative phosphorylation: 0.395
pTyr fixed, at -5
  relative phosphorylation: 0.554
